Assay results taken from patent US20240270846A1 (published 2024).
Substitutions are numbered along the chain they refer to. In names and notes the source's numbering stands.

B1: GLS3000 H27dD one-arm antibody (H chain CE115HA000) (antibody, human IgG1, kappa, L234A L235A, N297A, name in Kabat numbering)
heavy: QVQLVESGGGVVQPGRSLRLSCAASGFTFSNAWMHWVRQAPGKGLEWVAQIKAKSNNYATYYAESVKGRFTISRDDSKNSLYLQMNSLKTEDTAVYYCRYVHYGAYYGVDAWGQGTTVTVSSASTKGPSVFPLAPSSKSTSGGTAALGCLVKDYFPEPVTVSWNSGALTSGVHTFPAVLQSSGLYSLSSVVTVPSSSLGTQTYICNVNHKPSNTKVDKKVEPKSCDKTHTCPPCPAPEAAGGPSVFLFPPKPKDTLMISRTPEVTCVVVDVSHEDPEVKFNWYVDGVEVHNAKTKPREEQYASTYRVVSVLTVLHQDWLNGKEYKCKVSNKALPAPIEKTISKAKGQPREPQVYTLPPSRCELTKNQVSLSCAVKGFYPSDIAVEWESNGQPENNYKTTPPVLDSDGSFFLVSKLTVDKSRWQQGNVFSCSVMHEALHNHYTQKSLSLSPDYKDDDDK
chain: EPKSSDKTHTCPPCPAPELLGGPSVFLFPPKPKDTLMISRTPEVTCVVVDVSHEDPEVKFNWYVDGVEVHNAKTKPREEQYNSTYRVVSVLTVLHQDWLNGKEYKCKVSNKALPAPIEKTISKAKGQPREPQVCTLPPSRDELTKNQVSLWCLVKGFYPSDIAVEWESNGQPENNYKTTPPVLDSDGSFFLYSKLTVDKSRWQQGNVFSCSVMHEALHNRYTQKSLSLSP
light: DIVMTQSPLSLPVTPGEPASISCRSSQSLVDSNRNTYLHWYQQKPGQAPRLLIYKVSNRFSGVPDRFSGSGSGTDFTLKISRVEAEDVGVYYCGQGTQVPYTFGQGTKLEIKRTVAAPSVFIFPPSDEQLKSGTASVVCLLNNFYPREAKVQWKVDNALQSGNSQESVTEQDSKDSTYSLSSTLTLSKADYEKHKVYACEVTHQGLSSPVTKSFNRGEC
notes: one-arm antibody
B2: GLS3000 H27dV one-arm antibody (H chain CE115HA000) (antibody, human IgG1, kappa, L234A L235A, N297A, name in Kabat numbering)
heavy: B1 heavy
chain: B1 chain
light: B1 light with D31V
notes: one-arm antibody
B3: GLS3000 L27bS one-arm antibody (H chain CE115HA000) (antibody, human IgG1, kappa, L234A L235A, N297A, name in Kabat numbering)
heavy: B1 heavy
chain: B1 chain
light: B1 light with L29S, D31H
notes: one-arm antibody
B4: GLS3000 L27bE one-arm antibody (H chain CE115HA000) (antibody, human IgG1, kappa, L234A L235A, N297A, name in Kabat numbering)
heavy: B1 heavy
chain: B1 chain
light: B1 light with L29E, D31H
notes: one-arm antibody
B5: GLS3000 L27bM one-arm antibody (H chain CE115HA000) (antibody, human IgG1, kappa, L234A L235A, N297A, name in Kabat numbering)
heavy: B1 heavy
chain: B1 chain
light: B1 light with L29M, D31H
notes: one-arm antibody
B6: GLS3000 H34D one-arm antibody (H chain CE115HA000) (antibody, human IgG1, kappa, L234A L235A, N297A, name in Kabat numbering)
heavy: B1 heavy
chain: B1 chain
light: B1 light with D31H, H39D
notes: one-arm antibody
B7: GLS3000 H27dN one-arm antibody (H chain CE115HA000) (antibody, human IgG1, kappa, L234A L235A, N297A, name in Kabat numbering)
heavy: B1 heavy
chain: B1 chain
light: B1 light with D31N
notes: one-arm antibody
B8: GLS3000 H34A one-arm antibody (H chain CE115HA000) (antibody, human IgG1, kappa, L234A L235A, N297A, name in Kabat numbering)
heavy: B1 heavy
chain: B1 chain
light: B1 light with D31H, H39A
notes: one-arm antibody
B9: GLS3000 H27dP one-arm antibody (H chain CE115HA000) (antibody, human IgG1, kappa, L234A L235A, N297A, name in Kabat numbering)
heavy: B1 heavy
chain: B1 chain
light: B1 light with D31P
notes: one-arm antibody
B10: GLS3000 H27dW one-arm antibody (H chain CE115HA000) (antibody, human IgG1, kappa, L234A L235A, N297A, name in Kabat numbering)
heavy: B1 heavy
chain: B1 chain
light: B1 light with D31W
notes: one-arm antibody
B11: GLS3000 L27bY one-arm antibody (H chain CE115HA000) (antibody, human IgG1, kappa, L234A L235A, N297A, name in Kabat numbering)
heavy: B1 heavy
chain: B1 chain
light: B1 light with L29Y, D31H
notes: one-arm antibody
B12: GLS3000 H27dS one-arm antibody (H chain CE115HA000) (antibody, human IgG1, kappa, L234A L235A, N297A, name in Kabat numbering)
heavy: B1 heavy
chain: B1 chain
light: B1 light with D31S
notes: one-arm antibody
B13: GLS3000 H27dG one-arm antibody (H chain CE115HA000) (antibody, human IgG1, kappa, L234A L235A, N297A, name in Kabat numbering)
heavy: B1 heavy
chain: B1 chain
light: B1 light with D31G
notes: one-arm antibody
B14: GLS3000 L27bP one-arm antibody (H chain CE115HA000) (antibody, human IgG1, kappa, L234A L235A, N297A, name in Kabat numbering)
heavy: B1 heavy
chain: B1 chain
light: B1 light with L29P, D31H
notes: one-arm antibody
B15: GLS3000 H27dT one-arm antibody (H chain CE115HA000) (antibody, human IgG1, kappa, L234A L235A, N297A, name in Kabat numbering)
heavy: B1 heavy
chain: B1 chain
light: B1 light with D31T
notes: one-arm antibody
B16: GLS3000 L27bF one-arm antibody (H chain CE115HA000) (antibody, human IgG1, kappa, L234A L235A, N297A, name in Kabat numbering)
heavy: B1 heavy
chain: B1 chain
light: B1 light with L29F, D31H
notes: one-arm antibody
B17: GLS3000 H27dR one-arm antibody (H chain CE115HA000) (antibody, human IgG1, kappa, L234A L235A, N297A, name in Kabat numbering)
heavy: B1 heavy
chain: B1 chain
light: B1 light with D31R
notes: one-arm antibody
B18: GLS3000 H27dL one-arm antibody (H chain CE115HA000) (antibody, human IgG1, kappa, L234A L235A, N297A, name in Kabat numbering)
heavy: B1 heavy
chain: B1 chain
light: B1 light with D31L
notes: one-arm antibody
B19: GLS3000 H27dK one-arm antibody (H chain CE115HA000) (antibody, human IgG1, kappa, L234A L235A, N297A, name in Kabat numbering)
heavy: B1 heavy
chain: B1 chain
light: B1 light with D31K
notes: one-arm antibody
B20: GLS3000 K50D one-arm antibody (H chain CE115HA000) (antibody, human IgG1, kappa, L234A L235A, N297A, name in Kabat numbering)
heavy: B1 heavy
chain: B1 chain
light: B1 light with D31H, K55D
notes: one-arm antibody
B21: GLS3000 L27bW one-arm antibody (H chain CE115HA000) (antibody, human IgG1, kappa, L234A L235A, N297A, name in Kabat numbering)
heavy: B1 heavy
chain: B1 chain
light: B1 light with L29W, D31H
notes: one-arm antibody
B22: GLS3000 H27dF one-arm antibody (H chain CE115HA000) (antibody, human IgG1, kappa, L234A L235A, N297A, name in Kabat numbering)
heavy: B1 heavy
chain: B1 chain
light: B1 light with D31F
notes: one-arm antibody
B23: GLS3000 H27dM one-arm antibody (H chain CE115HA000) (antibody, human IgG1, kappa, L234A L235A, N297A, name in Kabat numbering)
heavy: B1 heavy
chain: B1 chain
light: B1 light with D31M
notes: one-arm antibody
B24: GLS3000 H27dY one-arm antibody (H chain CE115HA000) (antibody, human IgG1, kappa, L234A L235A, N297A, name in Kabat numbering)
heavy: B1 heavy
chain: B1 chain
light: B1 light with D31Y
notes: one-arm antibody
B25: GLS3000 L27bI one-arm antibody (H chain CE115HA000) (antibody, human IgG1, kappa, L234A L235A, N297A, name in Kabat numbering)
heavy: B1 heavy
chain: B1 chain
light: B1 light with L29I, D31H
notes: one-arm antibody
B26: GLS3000 L27bV one-arm antibody (H chain CE115HA000) (antibody, human IgG1, kappa, L234A L235A, N297A, name in Kabat numbering)
heavy: B1 heavy
chain: B1 chain
light: B1 light with L29V, D31H
notes: one-arm antibody
B27: GLS3000 H27dE one-arm antibody (H chain CE115HA000) (antibody, human IgG1, kappa, L234A L235A, N297A, name in Kabat numbering)
heavy: B1 heavy
chain: B1 chain
light: B1 light with D31E
notes: one-arm antibody
B28: GLS3000 H27dQ one-arm antibody (H chain CE115HA000) (antibody, human IgG1, kappa, L234A L235A, N297A, name in Kabat numbering)
heavy: B1 heavy
chain: B1 chain
light: B1 light with D31Q
notes: one-arm antibody
B29: GLS3000 L27bD one-arm antibody (H chain CE115HA000) (antibody, human IgG1, kappa, L234A L235A, N297A, name in Kabat numbering)
heavy: B1 heavy
chain: B1 chain
light: B1 light with L29D, D31H
notes: one-arm antibody
B30: GLS3000 K50A one-arm antibody (H chain CE115HA000) (antibody, human IgG1, kappa, L234A L235A, N297A, name in Kabat numbering)
heavy: B1 heavy
chain: B1 chain
light: B1 light with D31H, K55A
notes: one-arm antibody
B31: GLS3000 H27dI one-arm antibody (H chain CE115HA000) (antibody, human IgG1, kappa, L234A L235A, N297A, name in Kabat numbering)
heavy: B1 heavy
chain: B1 chain
light: B1 light with D31I
notes: one-arm antibody

Each binder was assayed against T1, CD3 epsilon homodimer protein (UniProt P07766 23-126) (assay: SPR, CD3e homodimer on chip;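 note: surface plasmon resonance at 25 degrees C, antibodies flowed as analyte over CD3 epsilon homodimer amine-coupled to a CM4 chip, running buffer HBS-EP+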).
T1 construct: also called CD3 (CD3 epsilon)
T1 sequence (P07766 23-126): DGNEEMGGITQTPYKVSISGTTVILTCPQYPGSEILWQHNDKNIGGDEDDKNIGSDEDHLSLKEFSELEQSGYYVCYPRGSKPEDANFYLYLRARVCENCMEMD

| Binder | ratio of amounts bound (altered form / unaltered GLS3000 antibody) |
| --- | --- |
| B1 | 0.22 |
| B2 | 0.3 |
| B3 | 0.71 |
| B4 | 0.17 |
| B5 | 0.71 |
| B6 | 0.22 |
| B7 | 0.3 |
| B8 | 1.06 |
| B9 | 0.24 |
| B10 | 0.39 |
| B11 | 0.25 |
| B12 | 0.32 |
| B13 | 0.3 |
| B14 | 0.91 |
| B15 | 0.29 |
| B16 | 0.42 |

| Binder | ratio of amounts bound (altered form / unaltered GLS3000 antibody) |
| --- | --- |
| B17 | 0.31 |
| B18 | 0.3 |
| B19 | 0.29 |
| B20 | 0.22 |
| B21 | 0.26 |
| B22 | 0.63 |
| B23 | 0.3 |
| B24 | 0.64 |
| B25 | 1.19 |
| B26 | 1.12 |
| B27 | 0.23 |
| B28 | 0.25 |
| B29 | 0.17 |
| B30 | 0.23 |
| B31 | 0.26 |
